Data set [1] can be described thus: Isoelectric point by two-dimensional gel electrophoresis and Western blotting. The format is physicochemical. To be noted: two-dimensional gel electrophoresis, tagged recombinant protein. How it is done:
Quail muscle cells were transfected with eIF5A-myc-His vector and myc- and His-tagged recombinant eIF5A protein was collected from the cytoplasm of the transfected cells. Similarly, quail muscle cells were trasfected with the eIF5A-FLAG-His vector, the cells were incubated in hypoxia/reoxygenation-conditioned PBS (RCP), and a FLAG- and His-tagged recombinant eIF5A protein was collected from the culture supernatant. The proteins were treated with Ni-NTA Purification System (Invitrogen), and after that gel filtration was performed with phosphate buffer containing 0.15 M NaCl (pH 7.4) using Superdex 200™ 10-300GL (GE Healthcare, 1.0×30 cm, bed capacity 24 mL) to purify the myc- and FLAG-tagged recombinant eIF5A proteins. The first dimensional isoelectric focusing was performed with Immobiline DryStrip (pH 4 to 7, GE Healthcare) which had been allowed to swell overnight with a sample dissolved in 7 M urea, 2 M thiourea, 4% CHAPS, 65 mM dithioerythritol [DTE], 2% IPG buffer pH 4 to 7 (GE Healthcare) and bromophenol blue [BPB]. The electrophoresis was performed at a voltage of 30 V for 7 hours, at 60V for 7 hours, at 60 to 200 V for 30 min, at 200 to 500 V for 30 min, at 500 to 1000 V for 30 min, at 1000 to 8000 V for 30 min, and at 8000 V for 2 hours (19.4 kVh in total). The second dimensional SDS-PAGE was performed with a gel (concentrated gel 4% acrylamide, 2.6% piperazine diacrylamide [PDA], separating gel 12% acrylamide, 2.6% PDA) and the electrophoresis was performed at 12 mA for 2 hours. The gel was transferred to a PVDF membrane, and then the myc- and FLAG-tagged recombinant eIF5A proteins were analyzed by Western blotting. First, the proteins were analyzed using anti-myc monoclonal antibody (Invitrogen), biotinylated anti-mouse IgG antibody and Vectastain ABC-AP Kit (Vector) and then detected with alkaline phosphatase and chemiluminescence. Then, the proteins were analyzed using anti-FLAG monoclonal antibody (M2, Sigma) and horseradish peroxidase (HRP)-labeled anti-mouse IgG antibody and detected with Konica Immunostain HRP-1000 Kit (Konica Corporation).
(1) As thioredoxin has been known to act as antioxidant by reducing other proteins and play a protective role against oxidative stress-induced cell injury, eIF5A was considered to be a candidate of an apoptosis inducing humoral factor. eIF5A is the only protein known to contain a unique amino acid hypusine, which is formed post-translationally by two-steps of an enzymatic reaction. eIF5A has been known to be localized mainly in the cytoplasm under normal conditions where hypusinated eIF5A facilitates translation of mRNAs involved in cell proliferation. However, no study to date has reported that eIF5A can be released extracellularly and act as an apoptosis-inducing factor. To confirm that eIF5A is actually released from cardiac myocytes in response to hypoxia/reoxygenation and the released eIF5A can induce apoptosis of cardiac myocytes, quail muscle cells (CRL-1962, ATCC) were transfected with an expression vector containing the FLAG- and His-tagged human eIF5A gene, incubated with hypoxic PBS, and then incubated with normoxic PBS. The reoxygenation-conditioned PBS (RCP) was collected, concentrated, and purified using Ni-NTA Purification System (Invitrogen), and recombinant protein ([RCP] re-eIF5A) was extracted by gel filtration. (2) Similarly, recombinant human eIF5A ([cytosolic] re-eIF5A) was extracted from cytosolic fractions of the untreated transfected cells. (3) After these recombinant eIF5A proteins were separated by two-dimensional electrophoresis, the resultant was analyzed by Western blotting with anti-FLAG M2 mAb (Sigma) (FIG. 2b). […] Specifically, spots having higher pI values, such as hypusinated eIF5A (spots B and B′ in FIG. 2b), and spots having lower pI values, such as unhypusinated eIF5A (spots A and A′ in FIG. 2b) were identified. There was no detectable spots of deoxyhypusinated intermediate (references Taylor, C. A., et al. Exp. Cell Res. 313, 437-449). […]
In general terms: A western blot detects proteins with antibodies after separation by electrophoresis.

For data set [2], the system named is cultured cardiac myocytes. Description: Induction of apoptosis of cultured cardiac myocytes by recombinant eIF5A proteins (TUNEL / cardiac myosin double staining). In kind it is cell-based, rat. As to conditions: recombinant protein 10 μg/mL.
Data set [3] deals with cardiac myocytes. Kind of data set: Effect of PARP-1 inhibitor and caspase inhibitor on apoptosis of cardiac myocytes induced by recombinant eIF5A (RCP) (TUNEL). In kind it is cell-based, rat. As to conditions: inhibitor added 1 hour before recombinant eIF5A (RCP), 3-aminobenzamide 2 mM, Z-VAD.fmk 100 μM, TUNEL at 72 hours.

Where a SMILES comes first, the peptide text is derived from it. The star is where a group is joined. Cbz = O=C(OCc1ccccc1)*; CH2F = FC*

As to “secreted unhypusinated eIF5: unhypusinated form of secreted eIF5A from RCP, spot A′”, the isoelectric point entry is given as “approx. 5.3” in data set [1] and 5.3 in data set [1] (listed as spot A′).

Take “recombinant mutant eIF5A (K50A) derived from RCP: K50A mutant eIF5A secreted into reoxygenation-conditioned PBS by transfected quail muscle cells”: in data set [2], the “induction of apoptosis of cultured cardiac myocytes (TUNEL and cardiac myosin double staining)” value is reported as “only partially induced apoptosis”.

Take “cytosolic unhypusinated eIF5A: unhypusinated form of conventionally known cytosolic eIF5A, spot A in two-dimensional electrophoresis [reference compound]”: the isoelectric point entry is given as “approx. 5.4” in data set [1] and 5.4 in data set [1] (listed as spot A).

As for `NC(=O)c1cccc(N)c1` [3-aminobenzamide], the inhibition (usually the relative decrease from the control value, in per cent) at 2000 µM in data set [3] (Rattus norvegicus, read-out: inhibition of apoptosis induction by recombinant eIF5A (RCP)) is about 30%.

In the case of “secreted hypusinated eIF5A: hypusinated form of secreted eIF5A from RCP, spot B′”, the isoelectric point result is reported as “approx. 5.4” in data set [1] and 5.4 in data set [1] (listed as spot B′).

Consider “cytosolic hypusinated eIF5A: hypusinated form of conventionally known cytosolic eIF5A, spot B in two-dimensional electrophoresis [reference compound]”, for which the results for the isoelectric point result in data set [1] and in data set [1] (listed as spot B) were “approx. 5.5” and 5.5, respectively.

`COC(=O)C[C@H](NC(=O)[C@H](C)NC(=O)[C@@H](NC(=O)OCc1ccccc1)C(C)C)C(=O)CF` [Z-VAD.fmk] (Cbz-Val-Ala-Asp(OMe)-CH2F): the “inhibition of apoptosis induction by recombinant eIF5A (RCP)” value in data set [3] is recorded as about 70%.

For “cytosolic (mostly unhypusinated) eIF5A: recombinant human eIF5A extracted from cytosolic fractions of untreated transfected cells [reference compound]”, the “induction of apoptosis of cultured cardiac myocytes (TUNEL and cardiac myosin double staining)” value in data set [2] is on record as “almost no cardiac myocytes underwent apoptosis”.
